The record followed here is US20230220016A1.

The test concerns the target 434cI-SH2 (SH2 domain of ABL1 kinase fused to 434 cI repressor) (434 phage) (UniProt P16117). Description: cell-based or functional assay.

Turning to “RpoZ-HA4 (monobody HA4 fused to RpoZ) (from UniProt P0A800 1-91) (designed binder)”, the transcriptional activation, bacterial 2-hybrid, sensitized promoter PlacZ-opt stood at 200 fold and the transcriptional activation, bacterial 2-hybrid, wild type PlacZ promoter stood at 17 fold.
